Values belong to the binder of their own block, whether it stands above or below them.
What was measured:
Test in all cases: two-hybrid library CCmax;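 also: natural log of median RNA to DNA barcode read ratio; higher means stronger binding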
4H233-AA = target: T1, 4H233-AA; details: mean of both orientations
T1 chain: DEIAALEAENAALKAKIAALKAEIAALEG

4H3940-AA = target: T2, 4H3940-AA; details: mean of both orientations
T2 chain: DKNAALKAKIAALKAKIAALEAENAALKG

4H1068-AA = target: T3, 4H1068-AA
T3 chain: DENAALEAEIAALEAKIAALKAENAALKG

4H390-AA = target: T4, 4H390-AA; details: mean of both orientations
T4 chain: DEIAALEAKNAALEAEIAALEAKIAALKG

4H278-AA = target: T5, 4H278-AA; details: mean of both orientations
T5 chain: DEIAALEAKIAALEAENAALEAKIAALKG

4H2512-AA = target: T6, 4H2512-AA; details: mean of both orientations
T6 chain: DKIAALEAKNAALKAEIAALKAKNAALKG

4H2187-AA = target: T7, 4H2187-AA; details: mean of both orientations
T7 chain: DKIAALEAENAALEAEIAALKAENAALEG

4H3625-AA = target: T8, 4H3625-AA; details: mean of both orientations
T8 chain: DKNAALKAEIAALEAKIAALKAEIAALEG

4H121-AA = target: T9, 4H121-AA; details: mean of both orientations
T9 chain: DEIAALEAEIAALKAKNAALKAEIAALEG

4H2873-AA = target: T10, 4H2873-AA; details: mean of both orientations
T10 chain: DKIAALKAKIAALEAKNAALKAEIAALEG

4H3134-AA = target: T11, 4H3134-AA; details: mean of both orientations
T11 chain: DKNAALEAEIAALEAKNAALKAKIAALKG

4H1710-AA = target: T12, 4H1710-AA; details: mean of both orientations
T12 chain: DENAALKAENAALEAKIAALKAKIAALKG

4H87-AA = target: T13, 4H87-AA; details: mean of both orientations
T13 chain: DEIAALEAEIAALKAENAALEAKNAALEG

4H510-AA = target: T14, 4H510-AA; details: mean of both orientations
T14 chain: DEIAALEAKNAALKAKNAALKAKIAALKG

4H1350-AA = target: T15, 4H1350-AA; details: mean of both orientations
T15 chain: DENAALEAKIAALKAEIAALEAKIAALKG

4H816-AA = target: T16, 4H816-AA; details: mean of both orientations
T16 chain: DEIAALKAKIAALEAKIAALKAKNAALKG

4H1985-AA = target: T17, 4H1985-AA; details: mean of both orientations
T17 chain: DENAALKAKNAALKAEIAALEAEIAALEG

4H2705-AA = target: T18, 4H2705-AA; details: mean of both orientations
T18 chain: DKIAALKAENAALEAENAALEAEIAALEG

4H2646-AA = target: T19, 4H2646-AA; details: mean of both orientations
T19 chain: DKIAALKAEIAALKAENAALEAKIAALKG

4H2758-AA = target: T20, 4H2758-AA; details: mean of both orientations
T20 chain: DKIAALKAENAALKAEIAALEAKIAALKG

4H3409-AA = target: T21, 4H3409-AA; details: mean of both orientations
T21 chain: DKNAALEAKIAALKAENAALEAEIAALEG

4H2687-AA = target: T22, 4H2687-AA; details: mean of both orientations
T22 chain: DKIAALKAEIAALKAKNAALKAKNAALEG

4H2985-AA = target: T23, 4H2985-AA; details: mean of both orientations
T23 chain: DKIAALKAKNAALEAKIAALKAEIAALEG

4H775-AA = target: T24, 4H775-AA; details: mean of both orientations
T24 chain: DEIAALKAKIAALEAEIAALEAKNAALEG

Core_NNIN-es_KEKK = target: T25, Core_NNIN-es_KEKK; details: mean of both orientations
T25 chain: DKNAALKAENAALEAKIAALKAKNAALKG

Core_NIII-es_KKEK = target: T26, Core_NIII-es_KKEK; details: mean of both orientations
T26 chain: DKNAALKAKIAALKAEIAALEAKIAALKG

Core_NNNN-es_KKKE = target: T27, Core_NNNN-es_KKKE; details: mean of both orientations
T27 chain: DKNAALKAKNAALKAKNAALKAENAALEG

Binder: DENAALEAEIAALEAKIAALKAENAALKG [4H1068-AA]
interaction score (4H233-AA): 0.754
interaction score (4H3940-AA): 2.05
interaction score (4H1068-AA): 0.409
interaction score (4H390-AA): -0.217
interaction score (4H278-AA): -0.737
interaction score (4H2512-AA): -1.06
interaction score (4H2187-AA): -1.71
interaction score (4H3625-AA): -0.226
interaction score (4H121-AA): -0.866
interaction score (4H2873-AA): -0.197
interaction score (4H3134-AA): -0.167
interaction score (4H1710-AA): -1.11
interaction score (4H87-AA): -0.863
interaction score (4H510-AA): -1.05
interaction score (4H1350-AA): 0.695
interaction score (4H816-AA): 0.372
interaction score (4H1985-AA): 0.534
interaction score (4H2705-AA): -1.15
interaction score (4H2646-AA): -0.0619
interaction score (4H2758-AA): -1.99
interaction score (4H3409-AA): -1.36
interaction score (4H2687-AA): 0.562
interaction score (4H2985-AA): -0.0876
interaction score (4H775-AA): -0.238

Binder: DENAALEAEIAALEAKIAALKAEIAALEG [Core_NIII-es_EEKE]
interaction score (Core_NIII-es_KKEK): 2.17

More lines, now with the values ahead:

interaction score (Core_NNIN-es_KEKK): 1.32
Binder: DENAALEAKNAALKAEIAALEAENAALEG [Core_NNIN-es_EKEE]

interaction score (Core_NNNN-es_KKKE): 0.962
Binder: DENAALEAENAALEAENAALEAKNAALKG [Core_NNNN-es_EEEK]
